Laboratory results reported in the supplement of paper PMC9233669.
Variants at the floor of the assay were thinned out.

Assays:
biotinyl-Phe-oxazolone = assay: self-aminoacylation, catalytic enhancement (BFO) (fold over background); higher = more active; k-Seq, kA / k0A0; sequences stand for … in GGGAAUGGAUCCACAUCUACGAAUUC…UUCACUGCAGACUUGACGAAGCUG
Procedure, shortened: (§1)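 Mutagenized RNA pools with a 21-nt variable region (0.43 μM) were reacted with each biotinyl-aminoacyl-oxazolone at 2–1250 μM for 90 minutes at room temperature, in 50 μL HEPES/NaCl/KCl/MgCl2/CaCl2 buffer containing 5% acetonitrile at pH 6.9–7.0. RNA captured on streptavidin was quantified by triplicate qPCR and by Illumina sequencing. The fraction reacted for each sequence was fit to a pseudo-first-order model with bootstrapping, and catalytic enhancement is the median kA divided by the uncatalyzed rate, taken as the low-activity peak of a bimodal Gaussian fit.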

biotinyl-Ile-oxazolone = assay: self-aminoacylation, catalytic enhancement (BIO) (fold over background); higher = more active; k-Seq, kA / k0A0; sequences stand for … in GGGAAUGGAUCCACAUCUACGAAUUC…UUCACUGCAGACUUGACGAAGCUG
Procedure, shortened: as §1

biotinyl-Met-oxazolone = assay: self-aminoacylation, catalytic enhancement (BMO) (fold over background); higher = more active; k-Seq, kA / k0A0; sequences stand for … in GGGAAUGGAUCCACAUCUACGAAUUC…UUCACUGCAGACUUGACGAAGCUG
Procedure, shortened: as §1

biotinyl-Val-oxazolone = assay: self-aminoacylation, catalytic enhancement (BVO) (fold over background); higher = more active; k-Seq, kA / k0A0; sequences stand for … in GGGAAUGGAUCCACAUCUACGAAUUC…UUCACUGCAGACUUGACGAAGCUG
Procedure, shortened: as §1

biotinyl-Leu-oxazolone = assay: self-aminoacylation, catalytic enhancement (BLO) (fold over background); higher = more active; k-Seq, kA / k0A0; sequences stand for … in GGGAAUGGAUCCACAUCUACGAAUUC…UUCACUGCAGACUUGACGAAGCUG
Procedure, shortened: as §1

biotinyl-Trp-oxazolone = assay: self-aminoacylation, catalytic enhancement (BWO) (fold over background); higher = more active; k-Seq, kA / k0A0; sequences stand for … in GGGAAUGGAUCCACAUCUACGAAUUC…UUCACUGCAGACUUGACGAAGCUG
Procedure, shortened: as §1

| Sequence | self-aminoacylation (biotinyl-Phe-oxazolone) | self-aminoacylation (biotinyl-Ile-oxazolone) | self-aminoacylation (biotinyl-Met-oxazolone) | self-aminoacylation (biotinyl-Val-oxazolone) | self-aminoacylation (biotinyl-Leu-oxazolone) | self-aminoacylation (biotinyl-Trp-oxazolone) |
| --- | --- | --- | --- | --- | --- | --- |
| AUUCACCUAGGUCCUCGGUUG [Fam2.2 aminoacylation ribozyme variant] | 4.8 | 1.13 | 1.39 | 1.31 | 1.51 | 0.815 |
| CUAUUUCACACAAUCGGUCUG [Fam1A.1 aminoacylation ribozyme variant] | 0.675 | 0.88 | 0.848 | 0.774 | 0.766 | 0.617 |
| AGUCACCUAGAUCAUCGGGUG [Fam2.2 aminoacylation ribozyme variant] | 17.5 | 3.96 | 3.33 | 3.06 | 3.5 | 4.5 |
| CCGCACUUCAAGCAAGCGGUC [Fam1B.1 aminoacylation ribozyme variant] | 1.43 | 1.65 | 1.43 | 1.67 | 1.31 | 2 |
| AAGUUUGCUAAUAGCCGGAAG [Fam3.1 aminoacylation ribozyme variant] | 3.2 | 1.25 | 1.14 | 1.25 | 1.4 | 2.38 |
| CUUACCCUGGGCAUCGAGUGA [Fam2.1 aminoacylation ribozyme variant] | 20.7 | 2.57 | 5.55 | 3.33 | 7.09 | 6.01 |
| AUCCACCUACGUCAUCGGGUG [Fam2.2 aminoacylation ribozyme variant] | 41.3 | 4.29 | 6.46 | 3.75 | 6.58 | 4.86 |
| AUUCAUCUAGGUCAUCGAGUG [Fam2.2 aminoacylation ribozyme variant] | 4.08 | 2.63 | 3.88 | 2.38 | 4.86 | 3.67 |
| AUUACCCUGGUCUUCGAGUGU [Fam2.1 aminoacylation ribozyme variant] | 1.76 | 1.52 | 1.96 | 1.57 | 2.03 | 2.23 |
| AUUAGCCUGGUCAGCGAGUGA [Fam2.1 aminoacylation ribozyme variant] | 9.96 | 3.09 | 3.65 | 3.39 | 5.47 | 4.85 |
| AUUCACCUAGGACAUCGGCUG [Fam2.2 aminoacylation ribozyme variant] | 10.9 | 1.7 | 2.02 | 1.79 | 2.32 | 2.64 |
| AUUCCCCUAGGUCAUCCGGUG [Fam2.2 aminoacylation ribozyme variant] | 295 | 27.6 | 38.5 | 26.9 | 51.5 | 39.5 |
| AUAAGCCUGGUCAUCGAGUGA [Fam2.1 aminoacylation ribozyme variant] | 29.4 | 4.71 | 6.25 | 4.25 | 7.06 | 9.48 |
| AAGUUAGCUAAUAUUCGCAAG [Fam3.1 aminoacylation ribozyme variant] | 2.26 | 1.78 | 1.43 | 1.39 | 1.33 | 1.59 |
| AUAGCCCUGGUCAUCGAGUGA [Fam2.1 aminoacylation ribozyme variant] | 78.5 | 8.62 | 19.9 | 7.53 | 20.3 | 21.6 |
| CUUACCCUGGUUAUCGAGUGA [Fam2.1 aminoacylation ribozyme variant] | 23.2 | 3.35 | 6.78 | 3.58 | 7.11 | 8.54 |
| CCCCACUUCAAGCUAUCGGUC [Fam1B.1 aminoacylation ribozyme variant] | 2.16 | 1.42 | 1.05 | 1.71 | 1.12 | 2.01 |
| AUUACGCCGGUCAUCGAGUGA [Fam2.1 aminoacylation ribozyme variant] | 81.9 | 3.94 | 7.36 | 4.89 | 7.93 | 8.28 |
| CCACAUUUCAAUCAAUCGGUC [Fam1B.1 aminoacylation ribozyme variant] | 12.7 | 1.14 | 1.09 | 1.14 | 1.07 | 6.51 |
| AUUAACCUGUUCAUCGAGUGA [Fam2.1 aminoacylation ribozyme variant] | 15.8 | 2.4 | 4.16 | 2.4 | 4.93 | 5.29 |
| AUUCACCGAGGUCAUCGGCUG [Fam2.2 aminoacylation ribozyme variant] | 12.4 | 2.29 | 2.26 | 2.26 | 2.38 | 1.93 |

| Sequence | self-aminoacylation (biotinyl-Phe-oxazolone) | self-aminoacylation (biotinyl-Ile-oxazolone) | self-aminoacylation (biotinyl-Met-oxazolone) | self-aminoacylation (biotinyl-Val-oxazolone) | self-aminoacylation (biotinyl-Leu-oxazolone) | self-aminoacylation (biotinyl-Trp-oxazolone) |
| --- | --- | --- | --- | --- | --- | --- |
| AUUCACAUAGGUCAUCGGGUC [Fam2.2 aminoacylation ribozyme variant] | 0.659 | 1.51 | 1.39 | 1.65 | 1.34 | 1.49 |
| CGACACUGCAAGCAAUCGGUC [Fam1B.1 aminoacylation ribozyme variant] | 1.4 | 1.52 | 1.26 | 1.47 | 1.37 | 1.82 |
| CCAUACGUCAAGCAAUCGGUC [Fam1B.1 aminoacylation ribozyme variant] | 0.88 | 1.04 | 1.03 | 1.12 | 1.34 | 1.16 |
| UUUCACCUAGGUCAUCGGGUG [Fam2.2 aminoacylation ribozyme variant] | 103 | 9.15 | 15.9 | 8.76 | 19.5 | 13.4 |
| CCACACUUCAACCAAUGGGUC [Fam1B.1 aminoacylation ribozyme variant] | 0.603 | 0.685 | 0.499 | 0.759 | 0.593 | 0.377 |
| GUAACCCUGGUCAUCGAGUGA [Fam2.1 aminoacylation ribozyme variant] | 75.7 | 7.01 | 15.2 | 6.13 | 15.6 | 15.1 |
| CCACACUUUAAGCAAUCGGUG [Fam1B.1 aminoacylation ribozyme variant] | 22.9 | 2.93 | 3.89 | 2.38 | 5.4 | 3.9 |
| CAACACUUCCAGCAAUCGGUC [Fam1B.1 aminoacylation ribozyme variant] | 0.986 | 1.41 | 1.1 | 1.26 | 1.1 | 1.01 |
| AUUCACGUCGGUCAUCGGGUG [Fam2.2 aminoacylation ribozyme variant] | 54.3 | 3.75 | 5.7 | 5.95 | 5.21 | 6.46 |
| GUUCACCUAGGUCAUCGGGGG [Fam2.2 aminoacylation ribozyme variant] | 6.24 | 2.93 | 4.28 | 3.43 | 5.9 | 4.61 |
| AACCACCUAGGUCAUCGGGUG [Fam2.2 aminoacylation ribozyme variant] | 28.8 | 3.78 | 5.6 | 4.48 | 4.62 | 6.68 |
| GCUCACCUAGGUCAUCGGGUG [Fam2.2 aminoacylation ribozyme variant] | 35.1 | 5.39 | 6.13 | 5.77 | 6.79 | 9.1 |
| GUUACCCUGGUCAUAGAGUGA [Fam2.1 aminoacylation ribozyme variant] | 85.2 | 5.89 | 11.1 | 5.04 | 12.6 | 14.1 |
| AUUCACCUAGGUCAUCUGGGG [Fam2.2 aminoacylation ribozyme variant] | 2.49 | 1.63 | 1.83 | 1.5 | 1.9 | 1.54 |
| CUAUUUCUAACAAUCGGUCUG [Fam1A.1 aminoacylation ribozyme variant] | 0.973 | 0.913 | 0.818 | 0.787 | 0.824 | 0.668 |
| CCACACCUCACGCAAUCGGUC [Fam1B.1 aminoacylation ribozyme variant] | 1.34 | 1.84 | 1.27 | 1.99 | 1.58 | 2.13 |
| AUUACCCAGGUCAACGAGUGA [Fam2.1 aminoacylation ribozyme variant] | 24.9 | 3.57 | 7.03 | 3.76 | 6.2 | 7.71 |
| CCACACUUCAAGCAAAAGGUC [Fam1B.1 aminoacylation ribozyme variant] | 1.05 | 0.598 | 0.434 | 0.721 | 0.524 | 0.598 |
| AUUCACCUCGGUCAUUGGGUG [Fam2.2 aminoacylation ribozyme variant] | 35.5 | 3.14 | 4.91 | 2.91 | 5.53 | 4.34 |
| CCACACUUCAGGCCAUCGGUC [Fam1B.1 aminoacylation ribozyme variant] | 7.44 | 2.37 | 1.94 | 2.49 | 1.77 | 1.69 |
| AUUGACCUAGGUCCUCGGGUG [Fam2.2 aminoacylation ribozyme variant] | 29 | 4.32 | 4.64 | 3.24 | 5.76 | 5.43 |
